Where “and” joins values, the source holds several entries; their conditions need not be identical. Equal entries are not always repeated. Where two headings read alike, the source gives them in different places.
Key:
[1] = molecular target: Measles virus (MeV) nonstructural protein C, full length, C-terminal GFP-Flag (measles virus) (UniProt P35977); assay: MST
[2] = molecular target: T1, Measles virus (MeV) large (L) protein, full length (measles virus, UniProt P35975 1-2183); assay: SEC
[3] = molecular target: T1, Measles virus (MeV) large (L) protein, …; assay: cryo-EM structure
[4] = molecular target: the molecule itself; assay: cryo-EM structure
[5] = molecular target: Measles virus L–P complex (full-length L with truncated P 304–507) (measles virus, UniProt P35975;P35974); assay: MST
[6] = molecular target: the molecule itself; assay: cryo-EM structure; remark: listed apart in the source

T1 sequence (P35975 whole entry): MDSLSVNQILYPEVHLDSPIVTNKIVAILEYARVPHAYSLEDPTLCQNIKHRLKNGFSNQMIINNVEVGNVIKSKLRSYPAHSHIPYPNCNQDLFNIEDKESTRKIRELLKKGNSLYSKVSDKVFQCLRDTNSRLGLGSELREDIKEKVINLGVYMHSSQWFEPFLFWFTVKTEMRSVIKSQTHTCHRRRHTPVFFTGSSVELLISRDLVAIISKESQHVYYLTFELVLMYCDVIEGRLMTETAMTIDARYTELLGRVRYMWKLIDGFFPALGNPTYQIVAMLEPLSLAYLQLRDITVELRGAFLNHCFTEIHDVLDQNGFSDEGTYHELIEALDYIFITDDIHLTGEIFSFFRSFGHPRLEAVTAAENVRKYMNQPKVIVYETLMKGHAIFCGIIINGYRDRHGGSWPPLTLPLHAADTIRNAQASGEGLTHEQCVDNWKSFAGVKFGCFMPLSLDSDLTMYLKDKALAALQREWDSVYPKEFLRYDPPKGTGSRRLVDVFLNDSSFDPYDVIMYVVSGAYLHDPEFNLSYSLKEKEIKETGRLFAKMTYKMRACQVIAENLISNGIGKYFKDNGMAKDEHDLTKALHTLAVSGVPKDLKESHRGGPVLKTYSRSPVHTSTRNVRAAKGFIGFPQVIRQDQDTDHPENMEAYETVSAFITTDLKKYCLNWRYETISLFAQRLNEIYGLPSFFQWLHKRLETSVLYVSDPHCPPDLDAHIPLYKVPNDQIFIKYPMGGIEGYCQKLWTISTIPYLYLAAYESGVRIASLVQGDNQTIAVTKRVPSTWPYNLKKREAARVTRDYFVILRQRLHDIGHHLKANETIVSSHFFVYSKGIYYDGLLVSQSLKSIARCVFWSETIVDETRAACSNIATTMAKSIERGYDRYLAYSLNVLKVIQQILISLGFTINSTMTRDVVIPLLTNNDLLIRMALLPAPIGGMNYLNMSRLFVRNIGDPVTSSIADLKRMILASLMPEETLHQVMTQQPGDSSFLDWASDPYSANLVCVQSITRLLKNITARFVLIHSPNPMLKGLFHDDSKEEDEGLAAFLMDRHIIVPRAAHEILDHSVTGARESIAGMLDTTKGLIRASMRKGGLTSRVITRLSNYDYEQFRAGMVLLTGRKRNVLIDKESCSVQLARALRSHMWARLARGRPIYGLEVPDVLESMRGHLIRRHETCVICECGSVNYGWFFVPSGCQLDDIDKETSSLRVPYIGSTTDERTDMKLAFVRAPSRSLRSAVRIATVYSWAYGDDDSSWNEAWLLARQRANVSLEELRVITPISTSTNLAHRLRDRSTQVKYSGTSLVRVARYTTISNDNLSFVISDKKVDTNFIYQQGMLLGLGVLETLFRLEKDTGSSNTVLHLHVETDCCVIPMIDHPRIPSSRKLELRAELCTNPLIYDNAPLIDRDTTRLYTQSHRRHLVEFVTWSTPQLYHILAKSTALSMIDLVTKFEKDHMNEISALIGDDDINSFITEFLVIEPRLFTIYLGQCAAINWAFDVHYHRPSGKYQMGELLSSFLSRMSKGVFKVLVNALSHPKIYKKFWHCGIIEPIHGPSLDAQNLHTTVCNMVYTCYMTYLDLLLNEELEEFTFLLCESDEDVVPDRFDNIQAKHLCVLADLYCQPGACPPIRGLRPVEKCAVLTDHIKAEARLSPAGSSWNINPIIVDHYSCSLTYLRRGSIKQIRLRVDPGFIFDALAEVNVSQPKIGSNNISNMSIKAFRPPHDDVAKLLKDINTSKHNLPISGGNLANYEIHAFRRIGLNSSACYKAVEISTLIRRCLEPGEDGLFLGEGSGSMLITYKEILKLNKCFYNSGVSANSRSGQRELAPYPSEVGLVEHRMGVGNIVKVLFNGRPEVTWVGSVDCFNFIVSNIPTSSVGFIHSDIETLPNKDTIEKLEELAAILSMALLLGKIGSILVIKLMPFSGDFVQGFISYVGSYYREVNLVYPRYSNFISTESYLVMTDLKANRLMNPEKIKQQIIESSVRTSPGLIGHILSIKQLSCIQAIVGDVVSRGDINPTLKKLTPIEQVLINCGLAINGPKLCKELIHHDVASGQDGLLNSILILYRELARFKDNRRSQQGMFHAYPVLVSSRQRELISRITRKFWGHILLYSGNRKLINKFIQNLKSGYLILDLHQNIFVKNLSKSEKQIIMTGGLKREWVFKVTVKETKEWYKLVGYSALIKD
Sequence of Measles virus L–P complex (full-length L with truncated P 304–507) (P35975 whole entry, the tested form may be a part, one chain of several): as the sequence (P35975 whole entry) above

Measles virus nucleoprotein N lacking the N-arm (residues 30–525) (from UniProt P35972 30-525) (domain or fragment)
Kd [1]: 4.57 µM and 3.92 µM

B1: Measles virus (MeV) phosphoprotein P, full length (natural protein)
chain: MAEEQARHVKNGLECIRALKAEPIGSLAIEEAMAAWSEISDNPGQERATCREEKAGSSGLSKPCLSAIGSTEGGAPRIRGQGPGESDDDAETLGIPPRNLQASSTGLQCYYVYDHSGEAVKGIQDADSIMVQSGLDGDSTLSGGDNESENSDVDIGEPDTEGYAITDRGSAPISMGFRASDVETAEGGEIHELLRLQSRGNNFPKLGKTLNVPPPPDPGRASTSGTPIKKGTERRLASFGTEIASLLTGGATQCARKSPSEPSGPGAPAGNVPEYVSNAALIQEWTPESGTTISPRSQNNEEGGDYYDDELFSDVQDIKTALAKIHEDNQKIISKLESLLLLKGEVESIKKQINRQNISISTLEGHLSSIMIAIPGLGKDPNDPTADVEINPDLKPIIGRDSGRALAEVLKKPVASRQLQGMTNGRTSSRGQLLKEFQPKPIGKKMSSAVGFVPDTGPASRSVIRSIIKSSRLEEDRKRYLMTLLDDIKGANDLAKFHQMLMKIIMK
binding result [2]: binds

B2: Measles virus (MeV) phosphoprotein P, N-terminally truncated (residues 304–507) (domain or fragment)
chain: GDYYDDELFSDVQDIKTALAKIHEDNQKIISKLESLLLLKGEVESIKKQINRQNISISTLEGHLSSIMIAIPGLGKDPNDPTADVEINPDLKPIIGRDSGRALAEVLKKPVASRQLQGMTNGRTSSRGQLLKEFQPKPIGKKMSSAVGFVPDTGPASRSVIRSIIKSSRLEEDRKRYLMTLLDDIKGANDLAKFHQMLMKIIMK
binding result [3]: binds | stoichiometry N [4]: 4

B3: Measles virus (MeV) nonstructural protein C, full length, C-terminal GFP-Flag (natural protein)
chain: MSKTDWNASGLSRPSPSAHWPSRKLWQHGQKYQTTQDRSEPPAGKRRQAVRVSANHASQQLDQLKAVHLASAVRDLERAMTTLKLWESPQEISRHQALGYSVIMFMITAVKRLRESKMLTLSWFNQALMVIAPYQEETMNLKTAMWILANLIPRDMLSLTGDLLPSLWGSGLLMLKLQKEGRSTSS
Kd [5]: ~0.32 µM | stoichiometry N [6]: 2

Source: paper doi:10.1101/2025.07.21.666041 (bioRxiv, 2025)
